Reference: paper doi:10.1101/2022.07.02.498517

Target: human ATP synthase complex (human (endogenous in HEK293T))
Test: native gel or EMSA

Q: How did the stoichiometry N turn out when human ATP synthase complex was run?
A: The stoichiometry N was 2.
